We go through 4 substances from paper PMC6582347.

In data set [1] the test system is Gal4(1-147) (Saccharomyces cerevisiae). The data set can be described thus: ensemble FRET titration. The settings on record: FRET (Gal4): 130 mM NaCl, 10 mM Tris-HCl pH 8, 0.01% Tween 20, 10% glycerol, 0.5 nM substrate, PIFE (LexA): 130 mM NaCl, 10 mM Tris pH 8, 10% glycerol, 0.005% ….
The next data set deals with LexA. Nature of the data set: PIFE titration. Conditions: FRET (Gal4): 130 mM NaCl, 10 mM Tris-HCl pH 8, 0.01% Tween 20, 10% glycerol, 0.5 nM substrate, PIFE (LexA): 130 mM NaCl, 10 mM Tris pH 8, 10% glycerol, 0.005% ….

Take “601-Gal4-S hexasome (H2A-H2B proximal to Gal4 site)”: the K half in data set [1] (hexasome, dimer-proximal site, smFRET kon 0.0052 s-1 nM-1, koff 0.37 s-1) came to 47 nM.

In the data set with LexA (naked DNA, Cy5-aminoC6-dT internal in reverse strand), DNA-LexA showed a K half of 0.3 nM.

The substance 601-Gal4-S nucleosome registered a K half in data set [1] (nucleosome, smFRET kon 0.011 s-1 nM-1, koff 0.32 s-1) of 19.6 nM.

In the data set on LexA (hexasome, dimer-distal site), “601-LexA-W hexasome (H2A-H2B distal LexA site)” came in with a K half of 0.25 nM.
